Data from publication PMC9856783, “Identification and Characterization of Aptamers Targeting Ovarian Cancer Biomarker Human Epididymis Protein 4 for the Application in Urine”.

T1: Human epididymis protein 4 (HE4) (human, UniProt Q14508 31-124)
T1 sequence: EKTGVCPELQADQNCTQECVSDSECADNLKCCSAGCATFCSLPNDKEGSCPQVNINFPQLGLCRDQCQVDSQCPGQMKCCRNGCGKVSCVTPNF

B1: AHE2 (ssDNA)
DNA: TCGCACATTCCGCTTCTACCGCCAACATCGTACTCCATCTGCCACCCCCACGTAAGTCCGTGTGTGCGAA
B2: Scramble aptamer DNA (ssDNA)
DNA: ATCGCGTCCGTCAATTACCTACGCTGCACCACTTATGAGCCGGTATCGCCATCCGTCAACTCACGCCTCC

Experiments:
[1] = biological target: T1, Human epididymis protein 4 (HE4); assay: thermofluorimetric analysis (SYBR Gold); preliminary data, urine; 100 nM DNA, 0-800 nM HE4, 1/125 diluted artificial urine, 1x SYBR Gold, protein buffer (10.1 mM Na2HPO4, 137 mM NaCl, 2.7 mM KCl, 1.8 mM KH2PO4, 1 mM MgCl2); pH; settings: protein: commercial; tags: 6xHis; label: SYBR Gold dye (non-covalent)
[2] = biological target: T1, Human epididymis protein 4 (HE4); assay: thermofluorimetric analysis (SYBR Gold); 1/125 artificial urine; HE4 up to 800 nM; 100 nM DNA, 0-800 nM HE4, 1/125 diluted artificial urine, 1x SYBR Gold, protein buffer (10.1 mM Na2HPO4, 137 mM NaCl, 2.7 mM KCl, 1.8 mM KH2PO4, 1 mM MgCl2); pH; settings: protein: commercial; tags: 6xHis; label: SYBR Gold dye (non-covalent)

| Binder | binding result [1] | binding result [2] |
| --- | --- | --- |
| B1 | no binding | – |
| B2 | – | no binding |
